From patent publication US20210388087A1 come the findings set out here.

The target in one test is Human CD137 ECD (human). Description: Biacore SPR, vs parent H183/L072. For orientation: SPR reads the build-up and loss of mass on a sensor chip optically.
The target in test [1] is Human CD3eg linker (human). Description: affinity relative to template H183/L072, single-mutation scan.
In test [2] the target is Human CD3eg linker (human). Nature of the test: SPR; fold vs parent H183/L072.

Sequence of Human CD137 ECD (human) (chain, as listed by the source limits assumed): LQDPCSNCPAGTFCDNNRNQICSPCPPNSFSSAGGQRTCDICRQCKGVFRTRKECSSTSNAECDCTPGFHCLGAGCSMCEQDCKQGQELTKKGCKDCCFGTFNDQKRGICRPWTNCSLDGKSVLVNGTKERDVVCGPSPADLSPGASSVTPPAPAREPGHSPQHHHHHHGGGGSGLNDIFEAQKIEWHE
Sequence of Human CD3eg linker (human) (chain, as listed by the source limits assumed): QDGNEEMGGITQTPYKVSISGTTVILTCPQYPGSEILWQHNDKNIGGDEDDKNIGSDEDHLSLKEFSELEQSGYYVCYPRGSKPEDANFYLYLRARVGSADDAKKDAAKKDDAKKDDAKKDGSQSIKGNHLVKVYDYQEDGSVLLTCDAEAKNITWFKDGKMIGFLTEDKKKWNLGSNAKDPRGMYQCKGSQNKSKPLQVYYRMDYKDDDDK

B1: H183/L072 VL L33K (antibody, name in Kabat numbering, V domains shown)
VH: QVQLVESGGGLVQPGRSLRLSCAASGFTFSNAWMHWVRQAPGKGLEWVAQIKDKGNAYAAYYAPSVKGRFTISRDDSKNSIYLQMNSLKTEDTAVYYCHYVHYASASTVLPAFGVDAWGQGTTVTVSS
VL: DIVMTQSPLSLPVTPGEPASISCQASQELVHMNRNTYKHWYQQKPGQAPRLLIYKVSNRFPGVPDRFSGSGSGTDFTLKISRVEAEDVGVYYCAQGTSVPFTFGQGTKLEIK
Consider B1, for which the fold change of affinity with Human CD137 ECD (human) is 0 fold.

B2: H183/L072 with K50Y (Kabat) in VL dBBDu072L (antibody, name in Kabat numbering, V domains shown)
VH: QVQLVESGGGLVQPGRSLRLSCAASGFTFSNAWMHWVRQAPGKGLEWVAQIKDKGNAYAAYYAPSVKGRFTISRDDSKNSIYLQMNSLKTEDTAVYYCHYVHYASASTVLPAFGVDAWGQGTTVTVSS
VL: DIVMTQSPLSLPVTPGEPASISCQASQELVHMNRNTYLHWYQQKPGQAPRLLIYYVSNRFPGVPDRFSGSGSGTDFTLKISRVEAEDVGVYYCAQGTSVPFTFGQGTKLEIK
As to B2, the fold change of affinity for CD3 in test [1] was determined as 0 fold.

B3: H183/L072 VL H34K (antibody, name in Kabat numbering, V domains shown)
VH: QVQLVESGGGLVQPGRSLRLSCAASGFTFSNAWMHWVRQAPGKGLEWVAQIKDKGNAYAAYYAPSVKGRFTISRDDSKNSIYLQMNSLKTEDTAVYYCHYVHYASASTVLPAFGVDAWGQGTTVTVSS
VL: DIVMTQSPLSLPVTPGEPASISCQASQELVHMNRNTYLKWYQQKPGQAPRLLIYKVSNRFPGVPDRFSGSGSGTDFTLKISRVEAEDVGVYYCAQGTSVPFTFGQGTKLEIK
In the case of B3, in the test with Human CD137 ECD (human), the fold change of affinity is 0 fold.

B4: H183/L072 VL H34Y (antibody, name in Kabat numbering, V domains shown)
VH: QVQLVESGGGLVQPGRSLRLSCAASGFTFSNAWMHWVRQAPGKGLEWVAQIKDKGNAYAAYYAPSVKGRFTISRDDSKNSIYLQMNSLKTEDTAVYYCHYVHYASASTVLPAFGVDAWGQGTTVTVSS
VL: DIVMTQSPLSLPVTPGEPASISCQASQELVHMNRNTYLYWYQQKPGQAPRLLIYKVSNRFPGVPDRFSGSGSGTDFTLKISRVEAEDVGVYYCAQGTSVPFTFGQGTKLEIK
On to B4, for which the fold change of affinity (in test [2]; in the test with Human CD137 ECD (human)) was 0 fold in each case.

B5: H183/L072 VL A25R (antibody, name in Kabat numbering, V domains shown)
VH: QVQLVESGGGLVQPGRSLRLSCAASGFTFSNAWMHWVRQAPGKGLEWVAQIKDKGNAYAAYYAPSVKGRFTISRDDSKNSIYLQMNSLKTEDTAVYYCHYVHYASASTVLPAFGVDAWGQGTTVTVSS
VL: DIVMTQSPLSLPVTPGEPASISCQRSQELVHMNRNTYLHWYQQKPGQAPRLLIYKVSNRFPGVPDRFSGSGSGTDFTLKISRVEAEDVGVYYCAQGTSVPFTFGQGTKLEIK
Take B5: the fold change of affinity in the test with Human CD137 ECD (human) was found to be 0 fold.

B6: H183/L072 VL H34A (antibody, name in Kabat numbering, V domains shown)
VH: QVQLVESGGGLVQPGRSLRLSCAASGFTFSNAWMHWVRQAPGKGLEWVAQIKDKGNAYAAYYAPSVKGRFTISRDDSKNSIYLQMNSLKTEDTAVYYCHYVHYASASTVLPAFGVDAWGQGTTVTVSS
VL: DIVMTQSPLSLPVTPGEPASISCQASQELVHMNRNTYLAWYQQKPGQAPRLLIYKVSNRFPGVPDRFSGSGSGTDFTLKISRVEAEDVGVYYCAQGTSVPFTFGQGTKLEIK
Take B6: the fold change of affinity in the test with Human CD137 ECD (human) is 0 fold.

B7: H183/L072 with V51Y (Kabat) in VL dBBDu072L (antibody, name in Kabat numbering, V domains shown)
VH: QVQLVESGGGLVQPGRSLRLSCAASGFTFSNAWMHWVRQAPGKGLEWVAQIKDKGNAYAAYYAPSVKGRFTISRDDSKNSIYLQMNSLKTEDTAVYYCHYVHYASASTVLPAFGVDAWGQGTTVTVSS
VL: DIVMTQSPLSLPVTPGEPASISCQASQELVHMNRNTYLHWYQQKPGQAPRLLIYKYSNRFPGVPDRFSGSGSGTDFTLKISRVEAEDVGVYYCAQGTSVPFTFGQGTKLEIK
As for B7, the fold change of affinity for CD3 in test [1] came out at 0 fold.

B8: H183/L072 VL L27bR (antibody, name in Kabat numbering, V domains shown)
VH: QVQLVESGGGLVQPGRSLRLSCAASGFTFSNAWMHWVRQAPGKGLEWVAQIKDKGNAYAAYYAPSVKGRFTISRDDSKNSIYLQMNSLKTEDTAVYYCHYVHYASASTVLPAFGVDAWGQGTTVTVSS
VL: DIVMTQSPLSLPVTPGEPASISCQASQERVHMNRNTYLHWYQQKPGQAPRLLIYKVSNRFPGVPDRFSGSGSGTDFTLKISRVEAEDVGVYYCAQGTSVPFTFGQGTKLEIK
As for B8, the fold change of affinity (in test [2]; with Human CD137 ECD (human)) was 0 fold each time.

B9: H183/L072 VL F55A (antibody, name in Kabat numbering, V domains shown)
VH: QVQLVESGGGLVQPGRSLRLSCAASGFTFSNAWMHWVRQAPGKGLEWVAQIKDKGNAYAAYYAPSVKGRFTISRDDSKNSIYLQMNSLKTEDTAVYYCHYVHYASASTVLPAFGVDAWGQGTTVTVSS
VL: DIVMTQSPLSLPVTPGEPASISCQASQELVHMNRNTYLHWYQQKPGQAPRLLIYKVSNRAPGVPDRFSGSGSGTDFTLKISRVEAEDVGVYYCAQGTSVPFTFGQGTKLEIK
Regarding B9, in the test with Human CD137 ECD (human), the fold change of affinity was determined as 0 fold.

B10: H183/L072 VL R54N (antibody, name in Kabat numbering, V domains shown)
VH: QVQLVESGGGLVQPGRSLRLSCAASGFTFSNAWMHWVRQAPGKGLEWVAQIKDKGNAYAAYYAPSVKGRFTISRDDSKNSIYLQMNSLKTEDTAVYYCHYVHYASASTVLPAFGVDAWGQGTTVTVSS
VL: DIVMTQSPLSLPVTPGEPASISCQASQELVHMNRNTYLHWYQQKPGQAPRLLIYKVSNNFPGVPDRFSGSGSGTDFTLKISRVEAEDVGVYYCAQGTSVPFTFGQGTKLEIK
B10: the fold change of affinity with Human CD137 ECD (human) was 0.06 fold.

B11: H183/L072 VL L27bY (antibody, name in Kabat numbering, V domains shown)
VH: QVQLVESGGGLVQPGRSLRLSCAASGFTFSNAWMHWVRQAPGKGLEWVAQIKDKGNAYAAYYAPSVKGRFTISRDDSKNSIYLQMNSLKTEDTAVYYCHYVHYASASTVLPAFGVDAWGQGTTVTVSS
VL: DIVMTQSPLSLPVTPGEPASISCQASQEYVHMNRNTYLHWYQQKPGQAPRLLIYKVSNRFPGVPDRFSGSGSGTDFTLKISRVEAEDVGVYYCAQGTSVPFTFGQGTKLEIK
As to B11, the fold change of affinity (in test [2]; with Human CD137 ECD (human)) was 0 fold each time.

B12: H183/L072 VL Y32R (antibody, name in Kabat numbering, V domains shown)
VH: QVQLVESGGGLVQPGRSLRLSCAASGFTFSNAWMHWVRQAPGKGLEWVAQIKDKGNAYAAYYAPSVKGRFTISRDDSKNSIYLQMNSLKTEDTAVYYCHYVHYASASTVLPAFGVDAWGQGTTVTVSS
VL: DIVMTQSPLSLPVTPGEPASISCQASQELVHMNRNTRLHWYQQKPGQAPRLLIYKVSNRFPGVPDRFSGSGSGTDFTLKISRVEAEDVGVYYCAQGTSVPFTFGQGTKLEIK
Take B12: the fold change of affinity (in test [2]; with Human CD137 ECD (human)) was 0 fold each time.

B13: H183/L072 VL L33R (antibody, name in Kabat numbering, V domains shown)
VH: QVQLVESGGGLVQPGRSLRLSCAASGFTFSNAWMHWVRQAPGKGLEWVAQIKDKGNAYAAYYAPSVKGRFTISRDDSKNSIYLQMNSLKTEDTAVYYCHYVHYASASTVLPAFGVDAWGQGTTVTVSS
VL: DIVMTQSPLSLPVTPGEPASISCQASQELVHMNRNTYRHWYQQKPGQAPRLLIYKVSNRFPGVPDRFSGSGSGTDFTLKISRVEAEDVGVYYCAQGTSVPFTFGQGTKLEIK
As for B13, the fold change of affinity (in test [2]; with Human CD137 ECD (human)) was 0 fold throughout.

B14: H183/L072 VL H34W (antibody, name in Kabat numbering, V domains shown)
VH: QVQLVESGGGLVQPGRSLRLSCAASGFTFSNAWMHWVRQAPGKGLEWVAQIKDKGNAYAAYYAPSVKGRFTISRDDSKNSIYLQMNSLKTEDTAVYYCHYVHYASASTVLPAFGVDAWGQGTTVTVSS
VL: DIVMTQSPLSLPVTPGEPASISCQASQELVHMNRNTYLWWYQQKPGQAPRLLIYKVSNRFPGVPDRFSGSGSGTDFTLKISRVEAEDVGVYYCAQGTSVPFTFGQGTKLEIK
For B14, the fold change of affinity (in test [2]; with Human CD137 ECD (human)) was 0 fold in each case.

B15: H183/L072 VL A25W (antibody, name in Kabat numbering, V domains shown)
VH: QVQLVESGGGLVQPGRSLRLSCAASGFTFSNAWMHWVRQAPGKGLEWVAQIKDKGNAYAAYYAPSVKGRFTISRDDSKNSIYLQMNSLKTEDTAVYYCHYVHYASASTVLPAFGVDAWGQGTTVTVSS
VL: DIVMTQSPLSLPVTPGEPASISCQWSQELVHMNRNTYLHWYQQKPGQAPRLLIYKVSNRFPGVPDRFSGSGSGTDFTLKISRVEAEDVGVYYCAQGTSVPFTFGQGTKLEIK
In the case of B15, the fold change of affinity (in test [2]; with Human CD137 ECD (human)) was 0 fold in each case.

B16: H183/L072 VL H34F (antibody, name in Kabat numbering, V domains shown)
VH: QVQLVESGGGLVQPGRSLRLSCAASGFTFSNAWMHWVRQAPGKGLEWVAQIKDKGNAYAAYYAPSVKGRFTISRDDSKNSIYLQMNSLKTEDTAVYYCHYVHYASASTVLPAFGVDAWGQGTTVTVSS
VL: DIVMTQSPLSLPVTPGEPASISCQASQELVHMNRNTYLFWYQQKPGQAPRLLIYKVSNRFPGVPDRFSGSGSGTDFTLKISRVEAEDVGVYYCAQGTSVPFTFGQGTKLEIK
On to B16, for which the fold change of affinity (in test [2]; in the test with Human CD137 ECD (human)) was 0 fold throughout.

B17: H183/L072 VL A25F (antibody, name in Kabat numbering, V domains shown)
VH: QVQLVESGGGLVQPGRSLRLSCAASGFTFSNAWMHWVRQAPGKGLEWVAQIKDKGNAYAAYYAPSVKGRFTISRDDSKNSIYLQMNSLKTEDTAVYYCHYVHYASASTVLPAFGVDAWGQGTTVTVSS
VL: DIVMTQSPLSLPVTPGEPASISCQFSQELVHMNRNTYLHWYQQKPGQAPRLLIYKVSNRFPGVPDRFSGSGSGTDFTLKISRVEAEDVGVYYCAQGTSVPFTFGQGTKLEIK
As for B17, the fold change of affinity (in test [2]; in the test with Human CD137 ECD (human)) was 0 fold each time.

B18: H183/L072 VL H34R (antibody, name in Kabat numbering, V domains shown)
VH: QVQLVESGGGLVQPGRSLRLSCAASGFTFSNAWMHWVRQAPGKGLEWVAQIKDKGNAYAAYYAPSVKGRFTISRDDSKNSIYLQMNSLKTEDTAVYYCHYVHYASASTVLPAFGVDAWGQGTTVTVSS
VL: DIVMTQSPLSLPVTPGEPASISCQASQELVHMNRNTYLRWYQQKPGQAPRLLIYKVSNRFPGVPDRFSGSGSGTDFTLKISRVEAEDVGVYYCAQGTSVPFTFGQGTKLEIK
Take B18: the fold change of affinity (in test [2]; in the test with Human CD137 ECD (human)) was 0 fold throughout.

B19: H183/L072 VL A25Y (antibody, name in Kabat numbering, V domains shown)
VH: QVQLVESGGGLVQPGRSLRLSCAASGFTFSNAWMHWVRQAPGKGLEWVAQIKDKGNAYAAYYAPSVKGRFTISRDDSKNSIYLQMNSLKTEDTAVYYCHYVHYASASTVLPAFGVDAWGQGTTVTVSS
VL: DIVMTQSPLSLPVTPGEPASISCQYSQELVHMNRNTYLHWYQQKPGQAPRLLIYKVSNRFPGVPDRFSGSGSGTDFTLKISRVEAEDVGVYYCAQGTSVPFTFGQGTKLEIK
As for B19, the fold change of affinity (in test [2]; in the test with Human CD137 ECD (human)) was 0 fold each time.
